The values below come from patent US20240025971A1.

A value given as a limit tells only on which side of the number the result lay.

The target of assay [1] is SARS-CoV-1 spike (pseudovirus) (SARS-CoV-1) (UniProt P59594). Briefly: cell-based or functional assay.
Assay [2] addresses SARS-CoV-2 Wuhan-1 full-length Spike protein (SARS-CoV-2) (UniProt P0DTC2). Briefly: cell-based or functional assay.
Assay [3] has as its target SARS-CoV-2 Spike (S) trimer (SARS-CoV-2) (UniProt P0DTC2). Briefly: ELISA, S trimer coated, 1:50 dilution. On the technique in general: ELISA stands for enzyme-linked immunosorbent assay.

Take “Anti-Nucleocapsid (Neg Control) (antibody)”: the Pseudovirus Neutralization in assay [1] and in assay [2] was above 50 µg/mL throughout.

Consider CA-1 (AB-009265) (antibody), for which the Optical Density (OD; 450 nm) in assay [3] stood at 2.74 OD450.

Turning to CB-6 (AB-009264) (antibody), the Optical Density (OD; 450 nm) in assay [3] stood at 2.81 OD450.
